According to article PMC3894413:

Target: BCL-XL (UniProt Q07817)
Experiment: SPR

Chain of UniProt Q07817 (Q07817 whole entry): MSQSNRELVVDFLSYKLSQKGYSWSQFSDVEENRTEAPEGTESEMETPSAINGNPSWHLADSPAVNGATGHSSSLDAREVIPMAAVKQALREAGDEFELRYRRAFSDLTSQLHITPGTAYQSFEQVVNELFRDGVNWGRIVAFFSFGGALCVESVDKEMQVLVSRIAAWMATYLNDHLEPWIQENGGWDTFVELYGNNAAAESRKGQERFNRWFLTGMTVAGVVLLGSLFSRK

NLWAAQRYGRELRRMSDEFVDSFKKG [BADS BH3 peptide]
fold higher affinity than BIMS2A BH3 for MCL-1: 20 fold
